tested on: MS2 coat protein; assay: apparent KD of MS2 coat protein; higher = weaker reporter binding; settings: Eterna round: R107; input ligand: arginine 13.2 mM
Summary of the method: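 Apparent KD stands for the median, per design, of fits to normalised cluster binding curves. The curves came from titrating on-chip-transcribed RNA switches on Illumina sequencing clusters with SNAP-549-labelled MS2 coat protein, twofold from 0.7 or 1.5 nM to 3 µM. Buffer was 100 mM Tris-HCl pH 7.5, 80 mM KCl, 4 mM MgCl2, without or with constant ligand.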

| Sequence | apparent KD of MS2 coat protein [nM] |
| --- | --- |
| UGACAUUGCUCAGAUACCAGACAUGAGCAUCAGCCAUGUGCCAACAAGUACAAAAUAAAAGUCCCUUGGCAGCUGAGCAAUGUCU [TheoBX 21 #MS2Left #AlternativeMS2 #Theo2] | 11.3 |
| AAUUCCGGGUCGGCCGCCACUGAUAUGGCGAGUCCUCGAACUUACAUGAGGAUCACCCAUGUAAACAGGACCGGGACCGCAUGGG [Exclusion Tryptophan B GF 23] | 16.3 |
| UUAUUUAUAAUUGAUACCAGUUUAAUGGCCGCAAAUCCUGACAUGAGGAUCACCCAUGUAAGCCCUUGGCAGCGGUUAUGGGUUU [XTheo B #25] | 22.8 |
| AUUAAAAGUUGUGAUACCAGACGAACAUGAGGAUCACCCAUGUAACUUUUAGGUGUUGUAGUCCCUUGGCAGCACUAUGUAGUUA [JR_SSTheophyB_Sub012] | 31.3 |
| GGAAUUAAGACUGAUACCAGUCAAGAUAAUCAUAAGAAUAAACAUGAGGAUCACCCAUGUGACCCUUGGCAGCAGACUAAUACCG [Same State Theophylline B GF 26] | 38.5 |
| UCGUUUUAGUCGGCCGCCACUGUAUGCAUGUUUAACAUGAGGAUCACCCAUGUCCCGUUCUAUUUCAGGACCGGGACGUAAUCGA [JR_SSTryptoB_Sub008] | 106 |
| ACAUGAGGAUCACCCAUGUACAUCACCCGACGAGGACCGGUACGGCCGCCACUCGGGUAUAUAUAUACAUCGGGUGAUUUUACGU [#22 Tryptophan A Same State] | 27.4 |
| UGUAUGGACUGAAGGAGCGGGUUGAUAACCUGAGGAUCACCCAGGUAAAAGGCGAAAGCCACCCAGGUAGGUCGCAGUCCAUACU | 16.3 |
| UCGCCAUUGACGGCCGCCACUCAAUGGUCUUCUCUGAACAUAAUUAACAUGAGGAUCACCCAUGUGAGGACCGGGUCGGUUAGAC [theeternabot_exclusion_MS2_Trp_B_24] | 17.4 |
| UAAAGUAGGUCCAAUAAAACUACAUGUGAAGGAGCGCGCGAAAGCGCAGGUAGGUCGCACAUGAGGAUCACCCAUGUCCUACAAU [MAT - Exclusion Arginine A - Mod of Eli - D17] | 42.6 |
| GGACUAACCUGAAGGAGCGACACGCACAAAGUGCAAAUUCCUCCACACGAGGAUCACCCGUGUCAGGUAGGUCGCAGGUUAGUCG [ArgBX 28] | 24.3 |
| GGAGUCGGCACGGCCGCCACUGCGGUGGUGUGACAUGAGGAUCACCCAUGUUGUCAUGCGGCCCUUAGGACCGGGUGGCGGUUCC [#1 Exclusion - Tryptophan B Attempt #22 (HarryS)] | 28.4 |
| AAAAUAAAUAAAACACGUAACAUGAAGGAUACCAGCCAGAAAACUGGCCCUUGGCAGCCUCUACAUGAGGAUCACCCAUGUCGUG [Mat - Same State Theophlline A - Mod of Eli - D16] | 156 |
| CUCGAGUUAUGAGAUACCAGACUAUAGUUUACAUGAGGAUCACCCAUGUUAUGGGUGGUGGUCCCUUGGCAGCUCAUAUGUUUAA [#08 Exclusion-TheophyllineB] | 105 |
| ACAUGAGGAUCACCCAUGUAUGAUGUUCCUCGAGGACCGGUACGGCCGCCACUCGAACGAGUGGCGCGCGAGCGCGCGCUCGCGC [aVa] | 14 |
| UUAAAGGCACCUCAUGGGACUAUAAACCCGCGAGGACCGGUACGGCCGCCACUCGAAUAUCAACAUGAGGAUCACCCAUGUGGUU [theeternabot_exclusion_MS2_Trp_A_6] | 16.2 |
| AAUUAUCAGUCGGCCGCCACUGACACAUGAGGAUCACCCAUGUAACUUGGGAUAAAUUUAAUAAACAGGACCGGGACAAAGGCUA [JR_ExcTryptoB_Sub011] | 36.6 |
| AACAUGAGGAUCACCCAUGUGUCCUCGAAACGAGGACCGGUACGGCCGCCACUCGAAUAAGCUGUUGACGAAAAGUCAGCAGCAA [Mat - Exclusion - Trytophan A - D19] | 91 |
| AGCGACAUGCGUGAUACCAGCUACAUGAGGAUCACCCAUGUCAGUAGGAAACUACUGUGUAGCCCUUGGCAGCACAGUGCAUGUC [Exclusion - Theophylline B (Freestyle 26)] | 12.3 |

| Sequence | apparent KD of MS2 coat protein [nM] |
| --- | --- |
| UUUUCAGGGUCGGCCGCCACUGGUAUGGCGAGUCCUCGAACAAACAUGAGGAUCACCCAUGUGAACAGGACCGGGACAGCAUGGG [Exclusion Tryptophan B GF 21] | 97.2 |
| AUAAAUAAUAAAUAAAAUAAAGUGGGUGAACGAGGACCGGUACGGCCGCCACUCGGACAUGAGGAUCACCCAUGUCCAUGUGAAA [AstrosExyTry#1] | 13.1 |
| UUUUAACAUGAGGAUCACCCAUGUAAUGAUACCAGAGACGAAAGUCUCCCUUGGCAGCAUAUAUCAUUACUCAUAGGAAACUAUG [Theophylline A 6] | 35.4 |
| GAUAUAUAACGAAGGAGCGGCCCUUGAUCCUCAUGAGACAUGAGGAUCACCCAUGUCUCGGGCCAGGUAGGUCGCGUUAUAUAUC [Astros-omei-mod] | 26.6 |
| ACACGGGCAUGAGGAUCACCCAUGUAAUAACGAGGACCGGUACGGCCGCCACUCGUGCACCGUGACCUGUACGAAAAGUGCAGGA | 13.6 |
| ACUGACUUUACGGCCGCCACUCAUUGGCACGUGUCAUGUCAACAUGAGGAUCACCCAUGUAUGAUGAGGACCGGGUAAGGGCUGC [theeternabot_exclusion_MS2_Trp_B_2] | 8.71 |
| UGCUACAUGAGGAUCACCCAUGUGGGUGAUACCAGCAUUCGUUAAUGCCCUUGGCAGCGCAGCCGAACCAUUCAUUCGGCAGAUC [Laxeor] | 36.2 |
| AGCCUCAUACAUGAGGAACACCCAUGUGAUACCAGUCAGGAAACUGACCCUUGGCAGCGCAUGAGGAUCACCCAUGCGCGAGGCA [Omei Theo A Exc A v3] | 20.4 |
| UGACAUUGCUCAGAUACCAGACGUGAGGAUCACCCACGUGCCAACAAGUACAAAAUAAAUGUCCCUUGGCAGCUGAGCAAUGUCU [TheoBX 26 #MS2Left #AlternativeMS2 #Theo22] | 9.64 |
| UGAUGGAACGGAAGGAGCGUGUAAGAACAAGAACAUGAGGAUCACCCAUGUAUUAAUUUAACACAGGUAGGUCGCCGAGAUAUUG [11.E] | 19.8 |
| UCGGGCAGAGCGGCCGCCACUGUAAGGCGUGCGGAUGACGGAACAUGAGGAUCACCCAUGUUGUUUAGGACCGGGCUUGCGGCGA [nynullin] | 22.5 |
| AGAUGAGUCACGGCCGCCACUCUUAUCAGGAUCACCCAUGGUUAACAUGAGGAUCACCCAUGUCUGAGGACCGGGUGAUGAGCAU [XTryp B #2] | 18.3 |
| AUAACAUGAGGAUCACCCAUGUAAGCUGAAGGAGCGCUGGAAACAGCAGGUAGGUCGCAGCAUGUUUCCACAUGGGUAGGAAACU [(M1)-(M2)-(Arg1)-(Arg2)-(A)'-(M)'-(A)''_Design8] | 42.4 |
| CCUGCGUUUCUUCUUUCGCAGGAGGAUGAUACCAGUAGGGAAACCUACCCUUGGCAGCAUGGGACAUGAGGAUCACCCAUGUGGA [SSThA NP+V+V2 #1] | 354 |
| CGGCCCUCACACGAGGAUCACCCGUGUGAUACCAGCCUGGAAACAGGCCCUUGGCAGCACAAGGUCAUCAAAGAUGACCAAGCCG [TheoAX 22 #SwitchBubble] | 9.52 |
| GAUGAUAUUGCAGAUACCAGACACAUGAGGAUCACCCAUGUCGUUGGGUCGCUGGGUCGUGUCCCUUGGCAGCUGCGAUAUCAUC [#04 Exclusion-TheophyllineB] | 28 |
| CGCAACCCACAUGAGGAUCACCCAUGUGAAGGAGCGGCGAAUAAGCCAGGUAGGUCGCGCAUGAAUAAAUCAUGUAGGAAGCGAA [XArg-A 7 V1&2] | 18 |
| GGCUCCAGCCGAAGGAGCGCUAGAAGGUGACAUGAGGAUCACCCAUGUGUGUGAUGUGGCUAGCAGGUAGGUCGCGGAGGAGCUU [Exclusion - Arginine B (Freestyle 19)] | 62.5 |
| CAAGAACAGCCAGAUCUUGGCAGCUGAGAAGGAGCGCGGGAAGCCGCAGGUAGGUCGCUCAGGAAUACAUGAGGAUCACCCAUGU [Beoror] | 19.8 |
